Data taken from patent US11649460B2, “DNA aptamers, method for inhibiting human galectin-1 and method of treating a mammal in need thereof” (priority 2020, dated 2023).

Key:
[1] = system: DU-145 human prostate carcinoma cell line; assay: SRB cell proliferation (cytotoxicity) assay, DU-145
Source text: (§1) The XLSTAT software was used to determine the IC50, TGI and LC50 values using the four-parameter logistic curve equation.

[2] = system: A-375 human malignant melanoma; assay: SRB cell proliferation (cytotoxicity) assay, A-375
Source text: as §1

[3] = system: HCT 116 human colorectal carcinoma; assay: SRB cell proliferation (cytotoxicity) assay, HCT 116
Source text: as §1

[4] = system: SK-BR-3 human breast adenocarcinoma; assay: SRB cell proliferation (cytotoxicity) assay, SK-BR-3
Source text: as §1

[5] = system: NHF human foreskin skin fibroblasts; assay: in vitro
Source text: as §1

[6] = target: T1, native human galectin-1 (hGal1) (Homo sapiens, UniProt P09382); assay: Thermofluor thermal shift assay (TSA), native galectin-1; type: binding; details: 5 μM protein
T1 construct: 42; made in house; host or cells: E. coli strain M-15
Summary of the method: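 Purified native or alkylated hGal1 (5 μM) was incubated 30 min with increasing aptamer SEQ ID NO.: 4 concentrations in PBS 1× with 5× SYPRO Orange. Samples were heated 25–95 °C at 1 °C/min, and melting temperature was derived from the fluorescence denaturation curves.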

[7] = system: alkylated galectin-1; assay: Thermofluor thermal shift assay (TSA), alkylated galectin-1; type: binding, human; details: 5 μM protein
Protocol: In an attempt to screen among the selected aptamers that better interact with hGal1, differential scanning fluorimetry (Termofluor) was used to characterize their binding to its target. Among all the selected aptamers, SEQ ID NO.: 4 seemed to have a more intense effect on hGal1 thermoshift and so was chosen for further analysis. The selected aptamer had its interaction evaluated with native and alkylated galectin-1. […] The respective thermal displacements were evaluated as a function of an increasing concentration of SEQ ID NO.: 4 (FIG. 1).
Thermofluor experiments were performed on an Mx3005 RT-PCR (Agilent Technologies) using the SYPRO® Orange dye (492/610 nm) (Invitrogen) as fluorescent probe. The purified (native and alkylated) protein samples were incubated for 30 min with increasing concentration of the molecules of interest, centrifuged, and submitted to the thermal denaturation assay, totalizing four distinct experiments. In a 96-well plate (Agilent Technologies) 20 μl of the reaction containing 5 μM of each protein in buffer PBS 1× and 5× SYPRO® Orange were heated from 25° C. to 95° C. at a rate of 1° C./min. The experimental result was processed as in the protocol previously described and the melting temperature was obtained using GraphPad Prism software (www.graphpad.com).

[8] = target: T2, human galectin-1 (hGal1) (Homo sapiens, UniProt P09382); assay: Tryptophan fluorescence quenching (Stern-Volmer); type: binding; details: Stern-Volmer fit; 5 μM hGal1, aptamer 0 to 7.2 μM; read-out: apparent dissociation constant
T2 construct: 42; made in house; host or cells: E. coli strain M-15
Protocol: Fluorescence measurements were taken by a spectrofluorimeter HITACHI F-4500, the spectra were collected by excitation and emission at a rate of 240 nm per min, using a 5 nm slit widths and recorded at room temperature. A total of 5 μM hGal1 solution was incubated for 10 hours with aptamer aliquots as quencher, from 0 to 7.2 μM, in PBS 1× buffer. The spectra were obtained between 300-450 nm after excitation at 295 nm and all buffer contributions were corrected for measurements. As previously described, the log of fluorescence quenching was evaluated by plotting it versus log of aptamer concentration. The Stern-Volmer equation was used to estimate the number of interacting sites (n) and the apparent kD.
Human galectin-1 tryptophan residue has an emission peak at 348 nm after […] exited. SEQ ID NO.: 4 promotes changes the fluorescence spectrum of Trp68, which is the sole Trp in the subunit of hGal1 and is one of the residues constituting its CRD. Upon the aptamer addition, fluorescence emission decreased (FIG. 1C). The fluorescence quenching log versus aptamer concentration log measurements was plotted and it was fitted with Stern-volmer equation. The best fit established apparent dissociation constant of approximately 31.9 nM and a binding site of 1.5 (FIG. 1D).

[9] = target: T3, alkylated Gal1 (Homo sapiens, UniProt P09382); assay: Hemagglutination inhibition assay, alkylated Gal1; type: cell-based; details: alkylated Gal1 5 μM
T3 construct: 42; made in house; host or cells: E. coli strain M-15
Protocol: FIG. 15 illustrates the hemagglutination test with constant protein concentration at 5 μM and titration of aptamers SEQ ID NO.: 4 and SEQ ID NO.: 9. (a) Titration with aptamer 4. The hemagglutination of native Gal1 was inhibited from the concentration of 10 μM of this compound.
Hemagglutination assay was adopted to assess the capacity of SEQ ID NO.: 4 in inhibiting the lectin cross-linking aggregation of red blood cells (RBC), as previously described. Briefly, using a 96-well microplates appropriate amounts of 5 μM hGal1 were blended with 50 μL of aptamer in an increasing concentrations manner (0-40 μM) in PBS 1× buffer (pH 7.4). Following, 50 μL of 3% purified type B+ RBC in PBS. After 2 h of room temperature incubation, the plate was photographed and the hemagglutination area was estimated by area calculator Sketchandcalc™ and the results were expressed as relative agglutination.
It was observed that treating hGal-1 with Iodoacetamide, which covalently binds the acetamide group in all solvent accessible cysteines sulfhydryl side chain, abolishes the anti-hemagglutinating activity of the aptamer. According to the proposed binding mode, this happens because Cysteines 2, 88 and 130 interact directly with the aptamer and adding the acetamide group to their side chains would disrupt specific aptamer-protein interactions (FIG. 13C).

T1 sequence (P09382 2-135): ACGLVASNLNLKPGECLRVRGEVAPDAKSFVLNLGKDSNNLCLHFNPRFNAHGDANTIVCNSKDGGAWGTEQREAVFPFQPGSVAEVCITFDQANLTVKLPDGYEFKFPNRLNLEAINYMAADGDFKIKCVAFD
T3 sequence (P09382 2-135): as above
Sequence of alkylated galectin-1 (P09382 2-135): as above
T2 sequence (P09382 2-135): as above

B1: CTGACACAGCAGGTTGGTGCCAACTAACACCATAAGAATACCCCGCTCCAAATAAGCCCACACGTAAACCCGAGTCGAGCAATCTCGAAAT (nucleic acid)
DNA: CTGACACAGCAGGTTGGTGCCAACTAACACCATAAGAATACCCCGCTCCAAATAAGCCCACACGTAAACCCGAGTCGAGCAATCTCGAAAT
modifications: chemistry not given here
notes: DNA aptamer that recognizes human galectin-1
[1]; 0.781 µM
  Relative viability (%) of test items: 109.3%
[1]; 1.562 µM
  Relative viability (%) of test items: 100.6%
[1]; 3.125 µM
  Relative viability (%) of test items: 104.7%
[1]; 6.25 µM
  Relative viability (%) of test items: 109.6%
[1]; 12.5 µM
  Relative viability (%) of test items: 104.3%
[1]; 25 µM
  Relative viability (%) of test items: 88.5%
[1]; 50 µM
  Relative viability (%) of test items: 68.4%
[1]; 100 µM
  Relative viability (%) of test items: 36.0%
[1]; read-out: IC50: Concentration to inhibit 50% of cell growth, DU-145
  IC50: 72.6 µM
[2]; 0.781 µM
  Relative cell viability (%) of test items: 109.5%
[2]; 1.562 µM
  Relative cell viability (%) of test items: 100.6%
[2]; 3.125 µM
  Relative cell viability (%) of test items: 103.0%
[2]; 6.25 µM
  Relative cell viability (%) of test items: 97.3%
[2]; 12.5 µM
  Relative cell viability (%) of test items: 85.8%
[2]; 25 µM
  Relative cell viability (%) of test items: 35.7%
[2]; 50 µM
  Relative cell viability (%) of test items: −69.0%
[2]; 100 µM
  Relative cell viability (%) of test items: −72.3%
[2]; A-375
  TGI: Concentration for total inhibition of cell growth: 29.656 µM
[2]; read-out: IC50: Concentration to inhibit 50% of cell growth, A-375
  IC50: 22.7 µM
[2]; read-out: LC50: Concentration for 50% cell death, A-375
  CC50: 41.1 µM
[3]; 0.781 µM
  Relative cell viability (%) of test items: 103.6%
[3]; 1.562 µM
  Relative cell viability (%) of test items: 95.4%
[3]; 3.125 µM
  Relative cell viability (%) of test items: 85.5%
[3]; 6.25 µM
  Relative cell viability (%) of test items: 85.0%
[3]; 12.5 µM
  Relative cell viability (%) of test items: 57.1%
[3]; 25 µM
  Relative cell viability (%) of test items: 24.4%
[3]; 50 µM
  Relative cell viability (%) of test items: 3.6%
[3]; 100 µM
  Relative cell viability (%) of test items: −70.2%
[3]; HCT 116
  TGI: Concentration for total inhibition of cell growth: 45.410 µM
[3]; read-out: IC50: Concentration to inhibit 50% of cell growth, HCT 116
  IC50: 16.8 µM
[3]; read-out: LC50: Concentration for 50% cell death, HCT 116
  CC50: 84.4 µM
[4]; 0.781 µM
  Relative cell viability (%) of test items: 101.9%
[4]; 1.562 µM
  Relative cell viability (%) of test items: 103.4%
[4]; 3.125 µM
  Relative cell viability (%) of test items: 98.6%
[4]; 6.25 µM
  Relative cell viability (%) of test items: 106.2%
[4]; 12.5 µM
  Relative cell viability (%) of test items: 96.1%
[4]; 25 µM
  Relative cell viability (%) of test items: 47.0%
[4]; 50 µM
  Relative cell viability (%) of test items: −34.6%
[4]; 100 µM
  Relative cell viability (%) of test items: −86.3%
[4]; SK-BR-3
  TGI: Concentration for total inhibition of cell growth: 37.515 µM
[4]; read-out: IC50: Concentration to inhibit 50% of cell growth, SK-BR-3
  IC50: 25 µM
[4]; read-out: LC50: Concentration for 50% cell death, SK-BR-3
  CC50: 56.9 µM
[5]; 0.781 µM
  Relative viability (%) of test items: 95.3%
[5]; 1.562 µM
  Relative viability (%) of test items: 94.2%
[5]; 3.125 µM
  Relative viability (%) of test items: 98.4%
[5]; 6.25 µM
  Relative viability (%) of test items: 100.7%
[5]; 12.5 µM
  Relative viability (%) of test items: 106.6%
[5]; 25 µM
  Relative viability (%) of test items: 73.4%
[5]; 50 µM
  Relative viability (%) of test items: 19.8%
[5]; 100 µM
  Relative viability (%) of test items: −25.4%
[5]; NHF
  TGI: Concentration for total inhibition of cell growth: 63.101 µM
[5]; read-out: IC50: Concentration to inhibit 50% of cell growth, NHF
  IC50: 35.6 µM
[6]
  variation of denaturation temperature (Tm) of native hGal1: greater variation
[6]; listed as SEQ ID NO.: 4
  variation of denaturation temperature (Tm) of native hGal1: marked decrease in Tm
[7]
  temperature variation (Tm) of alkylated galectin-1: not significant
[8]
  Kd: ~0.0319 µM
[9]
  effect on hemagglutination by alkylated Gal1: no observed effect
